Consider six molecules from paper PMC11248248, “Dual protection by Bcp1 and Rkm1 ensures incorporation of uL14 into pre-60S ribosomal subunits” (The Journal of Cell Biology, 2024).

First the molecules themselves.
B2: Bcp1-His6 (natural protein, S. cerevisiae, UniProt Q06338 1-283, looked up)
chain: MVQAIKLNDLKNRKRKNVEEENGSDESEIDISSTDSENEEEQNGEEEIVNIDFDFFGGNPEVDFHALKNLLRQLFGPQESTRIQLSSLADLILGSPTTTIKTDGKESDPYCFLSFVDFKANHLSDYVKYLQKVDMRLSTFFKTMIDSGNKNCALVLSERLINMPPEVVPPLYKITLEDVATALGDDKHYDFYIIVTRKYEVNFDTDDDTDSGKRNKNKDERSKKRVKADEVDYFHEEDRFFEKYAKIHFESEAKKGVISSYMILDHEGLVKSIDELETEISTW
notes: Bcp1, S. cerevisiae; also called full-length Bcp1; recombinant Bcp1

Common to all, as to conditions: both partners purified
Test [1] addresses T1, GST-Kap121 (S. cerevisiae, UniProt P32337 1-1089).
T1 construct: importin Kap121 (Pse1), S. cerevisiae; also called karyopherin; importin; source: recombinant, purified on glutathione beads; not shown: GST, N-terminal, kept
T1 sequence (looked up): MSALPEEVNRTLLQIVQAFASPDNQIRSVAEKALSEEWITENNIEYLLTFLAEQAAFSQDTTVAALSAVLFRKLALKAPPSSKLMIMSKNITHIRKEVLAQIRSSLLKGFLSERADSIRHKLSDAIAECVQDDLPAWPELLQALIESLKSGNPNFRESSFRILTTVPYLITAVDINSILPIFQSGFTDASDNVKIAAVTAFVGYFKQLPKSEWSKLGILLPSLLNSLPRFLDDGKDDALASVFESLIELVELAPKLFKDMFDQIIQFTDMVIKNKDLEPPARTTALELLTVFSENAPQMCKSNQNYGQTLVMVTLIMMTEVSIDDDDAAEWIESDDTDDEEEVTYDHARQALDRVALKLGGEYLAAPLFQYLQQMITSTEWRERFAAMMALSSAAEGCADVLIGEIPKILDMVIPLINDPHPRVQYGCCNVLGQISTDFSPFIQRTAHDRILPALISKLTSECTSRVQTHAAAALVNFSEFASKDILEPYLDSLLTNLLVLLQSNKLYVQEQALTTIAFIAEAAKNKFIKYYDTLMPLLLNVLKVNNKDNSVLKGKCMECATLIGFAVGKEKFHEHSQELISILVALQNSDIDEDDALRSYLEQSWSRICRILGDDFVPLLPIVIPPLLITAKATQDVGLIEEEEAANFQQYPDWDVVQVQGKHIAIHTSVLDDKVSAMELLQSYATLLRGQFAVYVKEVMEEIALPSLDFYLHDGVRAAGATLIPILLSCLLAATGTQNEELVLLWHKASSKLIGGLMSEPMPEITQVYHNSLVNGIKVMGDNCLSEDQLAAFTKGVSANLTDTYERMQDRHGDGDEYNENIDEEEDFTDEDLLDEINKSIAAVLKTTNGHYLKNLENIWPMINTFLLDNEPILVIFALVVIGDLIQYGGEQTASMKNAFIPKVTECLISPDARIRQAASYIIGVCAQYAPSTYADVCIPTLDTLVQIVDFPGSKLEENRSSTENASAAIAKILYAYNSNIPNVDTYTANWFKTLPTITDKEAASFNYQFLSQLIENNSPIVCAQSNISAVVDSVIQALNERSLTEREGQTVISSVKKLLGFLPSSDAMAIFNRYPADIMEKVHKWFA
Nature of the test: pull-down; release test: GST-Kap in complex with cargo immobilised on glutathione beads, purified Bcp1 or bcp1ΔN added for another hour at 4°C; what is left on the beads or in the supernatant by western blotting.

The next test concerns the target T2, GST-Kap123 (S. cerevisiae, UniProt P40069 1-1113).
T2 construct: importin Kap123, S. cerevisiae; also called karyopherin; importin; source: recombinant, purified on glutathione beads; not shown: GST, N-terminal, kept
T2 sequence (looked up): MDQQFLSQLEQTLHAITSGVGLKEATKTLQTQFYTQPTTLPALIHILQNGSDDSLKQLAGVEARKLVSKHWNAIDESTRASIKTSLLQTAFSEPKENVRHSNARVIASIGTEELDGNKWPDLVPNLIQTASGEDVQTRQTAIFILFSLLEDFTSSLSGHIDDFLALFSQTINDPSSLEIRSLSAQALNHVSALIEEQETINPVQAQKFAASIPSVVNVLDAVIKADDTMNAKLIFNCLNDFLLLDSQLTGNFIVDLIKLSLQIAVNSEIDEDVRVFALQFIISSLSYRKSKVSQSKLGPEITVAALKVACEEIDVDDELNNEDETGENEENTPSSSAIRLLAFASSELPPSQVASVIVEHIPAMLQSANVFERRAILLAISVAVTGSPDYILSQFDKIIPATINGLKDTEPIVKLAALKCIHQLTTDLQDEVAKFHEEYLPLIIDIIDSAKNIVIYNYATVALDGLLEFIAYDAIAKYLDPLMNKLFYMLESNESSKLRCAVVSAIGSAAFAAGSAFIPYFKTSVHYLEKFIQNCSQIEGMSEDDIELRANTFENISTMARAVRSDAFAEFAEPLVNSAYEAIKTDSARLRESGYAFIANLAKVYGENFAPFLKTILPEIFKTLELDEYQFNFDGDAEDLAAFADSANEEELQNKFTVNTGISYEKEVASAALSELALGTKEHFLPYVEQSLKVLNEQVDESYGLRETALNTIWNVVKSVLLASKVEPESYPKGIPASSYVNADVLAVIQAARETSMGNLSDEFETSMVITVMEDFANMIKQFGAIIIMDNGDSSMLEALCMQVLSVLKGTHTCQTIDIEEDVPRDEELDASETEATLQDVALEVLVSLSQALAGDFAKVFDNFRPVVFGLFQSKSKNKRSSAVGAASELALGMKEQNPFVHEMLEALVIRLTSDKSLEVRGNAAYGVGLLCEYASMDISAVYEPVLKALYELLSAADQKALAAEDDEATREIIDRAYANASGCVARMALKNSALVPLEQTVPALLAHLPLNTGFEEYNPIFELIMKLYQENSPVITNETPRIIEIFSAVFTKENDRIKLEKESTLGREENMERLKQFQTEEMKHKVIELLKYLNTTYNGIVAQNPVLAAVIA
The test can be described thus: pull-down; GST-Kap121 or GST-Kap123 on glutathione beads, incubated with recombinant proteins at 4°C for 1 h, three washes; Coomassie staining and western blotting.

Another test has as its target T3, Rkm1-His6 (S. cerevisiae, UniProt Q08961 1-583).
T3 construct: Rkm1, ribosomal lysine methyltransferase with SET domain, S. cerevisiae; also called recombinant Rkm1; source: E. coli BL21(DE3), purified (Ni-NTA, Superdex 200)
T3 sequence (looked up): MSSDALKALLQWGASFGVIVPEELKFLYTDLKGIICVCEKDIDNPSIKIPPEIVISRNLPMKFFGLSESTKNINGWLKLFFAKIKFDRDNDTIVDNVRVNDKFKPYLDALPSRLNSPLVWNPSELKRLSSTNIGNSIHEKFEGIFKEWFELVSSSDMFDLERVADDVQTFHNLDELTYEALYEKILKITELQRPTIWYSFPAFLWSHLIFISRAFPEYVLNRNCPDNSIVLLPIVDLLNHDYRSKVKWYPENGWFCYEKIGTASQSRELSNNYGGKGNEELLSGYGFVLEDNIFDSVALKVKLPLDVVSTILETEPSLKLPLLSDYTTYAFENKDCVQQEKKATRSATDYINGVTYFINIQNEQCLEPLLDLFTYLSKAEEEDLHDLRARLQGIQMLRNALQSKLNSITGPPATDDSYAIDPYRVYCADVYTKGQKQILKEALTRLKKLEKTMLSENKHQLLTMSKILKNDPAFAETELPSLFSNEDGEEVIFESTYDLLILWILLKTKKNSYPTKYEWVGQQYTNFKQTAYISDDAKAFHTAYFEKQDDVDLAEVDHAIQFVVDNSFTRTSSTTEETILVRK
The test can be described thus: SEC; HiLoad 16/600 Superdex 200; Bcp1, uL14 and Rkm1 mixed; ratio from band intensity in SDS-PAGE and molecular weight estimated from SEC.

The target of test [2] is B2. The test is described as above.
Test [3] deals with T1, GST-Kap121. The test can be described thus: pull-down; GST-Kap121 or GST-Kap123 on glutathione beads, incubated with recombinant proteins at 4°C for 1 h, three washes; Coomassie staining and western blotting.
In a further test the target is T4, GST-Rkm1/uL14 complex (S. cerevisiae, UniProt Q08961 1-583; P0CX41 1-137).
T4 construct: Rkm1, S. cerevisiae; as the chain of m12; uL14 (Rpl23), S. cerevisiae; as the chain of m2; also called Rkm1/uL14 complex on glutathione beads; source: recombinant, purified with glutathione beads
T4 sequence (P0CX41 whole entry, one chain of several): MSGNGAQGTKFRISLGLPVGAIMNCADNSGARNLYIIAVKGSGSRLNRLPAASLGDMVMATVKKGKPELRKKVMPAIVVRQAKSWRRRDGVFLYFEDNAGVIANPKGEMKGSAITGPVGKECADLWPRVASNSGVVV
The test can be described thus: pull-down; purified Bcp1 or bcp1∆N20 added to the GST-Rkm1/uL14 complex immobilised on glutathione beads, with or without 0.5 mM SAM, 30°C, 80 min; beads and supernatants analysed.

For test [4], the target named is B2. Nature of the test: pull-down; Bcp1-His6 in the supernatants of the methylation reactions (Fig. 6 A, lanes 7 and 8) purified on Ni-NTA beads; bound uL14 and its methylation by western blotting. Background: A western blot detects proteins with antibodies after separation by electrophoresis.

B1: uL14 (recombinant) (natural protein)
chain: not shown
notes: ribosomal protein uL14 (Rpl23), S. cerevisiae, encoded by RPL23A and RPL23B; No tag is named for recombinant uL14; for the Bcp1/uL14 complex its bacterial pellet was lysed together with that of Bcp1-His6; also called Rpl23; source: E. coli BL21(DE3), purified
Broadly, the stoichiometry N is the number of molecules, sites or subunits per partner or assembly. As for B1, the binding result with GST-Kap121 [1] and with GST-Kap123 was “binds” in each case. Moreover, the “stoichiometry N” value with Rkm1-His6 and with Bcp1-His6 [2] was ~1 in each case. Take B2: the binding result with GST-Kap121 [3] and with GST-Rkm1/uL14 complex was “binds” throughout.

B3: bcp1ΔN20 (domain or fragment, S. cerevisiae, UniProt Q06338 21-283, looked up)
chain: ENGSDESEIDISSTDSENEEEQNGEEEIVNIDFDFFGGNPEVDFHALKNLLRQLFGPQESTRIQLSSLADLILGSPTTTIKTDGKESDPYCFLSFVDFKANHLSDYVKYLQKVDMRLSTFFKTMIDSGNKNCALVLSERLINMPPEVVPPLYKITLEDVATALGDDKHYDFYIIVTRKYEVNFDTDDDTDSGKRNKNKDERSKKRVKADEVDYFHEEDRFFEKYAKIHFESEAKKGVISSYMILDHEGLVKSIDELETEISTW
notes: Bcp1, S. cerevisiae, truncated by 20 amino acids from the N terminus; also called bcp1(∆N20); Bcp1(∆N20); source: E. coli, purified
With B3, the binding result with GST-Rkm1/uL14 complex is given as “binds”.

B4: Rkm1/uL14 complex (complex)
chain 1: MSSDALKALLQWGASFGVIVPEELKFLYTDLKGIICVCEKDIDNPSIKIPPEIVISRNLPMKFFGLSESTKNINGWLKLFFAKIKFDRDNDTIVDNVRVNDKFKPYLDALPSRLNSPLVWNPSELKRLSSTNIGNSIHEKFEGIFKEWFELVSSSDMFDLERVADDVQTFHNLDELTYEALYEKILKITELQRPTIWYSFPAFLWSHLIFISRAFPEYVLNRNCPDNSIVLLPIVDLLNHDYRSKVKWYPENGWFCYEKIGTASQSRELSNNYGGKGNEELLSGYGFVLEDNIFDSVALKVKLPLDVVSTILETEPSLKLPLLSDYTTYAFENKDCVQQEKKATRSATDYINGVTYFINIQNEQCLEPLLDLFTYLSKAEEEDLHDLRARLQGIQMLRNALQSKLNSITGPPATDDSYAIDPYRVYCADVYTKGQKQILKEALTRLKKLEKTMLSENKHQLLTMSKILKNDPAFAETELPSLFSNEDGEEVIFESTYDLLILWILLKTKKNSYPTKYEWVGQQYTNFKQTAYISDDAKAFHTAYFEKQDDVDLAEVDHAIQFVVDNSFTRTSSTTEETILVRK
chain 2: not shown
notes: Rkm1, S. cerevisiae; uL14 (Rpl23), S. cerevisiae; as the chain of m2; also called uL14/Rkm1 complex; source: E. coli, recombinant, purified
Consider B4, for which the binding result with GST-Kap123 and with GST-Kap121 [3] was “binds” throughout.

B5: methylated uL14 (natural protein)
chain: not shown
modifications: methylated at K106 and K110
notes: uL14 (Rpl23), S. cerevisiae; Methylation stoichiometry of K106 and K110 ~98.6% by AspN digestion; also called uL14 methylated in vitro by Rkm1 with SAM; source: recombinant uL14 methylated on GST-Rkm1 beads with 0.5 mM SAM, 30°C, 80 min
With B5, the binding result with Bcp1-His6 [4] is listed as “binds”.

B6: bcp1ΔN10 (domain or fragment, S. cerevisiae, UniProt Q06338 11-283, looked up)
chain: KNRKRKNVEEENGSDESEIDISSTDSENEEEQNGEEEIVNIDFDFFGGNPEVDFHALKNLLRQLFGPQESTRIQLSSLADLILGSPTTTIKTDGKESDPYCFLSFVDFKANHLSDYVKYLQKVDMRLSTFFKTMIDSGNKNCALVLSERLINMPPEVVPPLYKITLEDVATALGDDKHYDFYIIVTRKYEVNFDTDDDTDSGKRNKNKDERSKKRVKADEVDYFHEEDRFFEKYAKIHFESEAKKGVISSYMILDHEGLVKSIDELETEISTW
notes: Bcp1, S. cerevisiae, truncated by 10 amino acids from the N terminus; also called bcp1(∆N10); bcp1∆N10; source: E. coli, purified
Consider B6, for which the binding result with GST-Kap121 [3] is recorded as “binds”.
